Data published in the supplement of paper PMC9170038.

system: MS2 coat protein; assay: apparent KD of MS2 coat protein, switch OFF state (with FMN for OFF switches, without FMN for ON switches); designed switch direction (-1 OFF switch, 1 ON switch): -1; higher = weaker reporter binding; conditions: FMN input: 0 or 200 uM; Eterna round: R93 (includes R88 designs)
Outline: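 Apparent KD is reported per design as the median of normalised binding-curve fits across its clusters. The RNA switches were made by on-chip transcription from Illumina sequencing clusters. SNAP-549-labelled MS2 coat protein was then added in twofold steps (0.7 or 1.5 nM to 3 µM; 0.8–1.5 h to 10–20 min per step) in 100 mM Tris-HCl pH 7.5, 80 mM KCl, 4 mM MgCl2, without or with constant ligand.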

Sequence	apparent KD of MS2 coat protein [nM]
AACAGUACAGGAUAUACAUGAGGAUCACCCAUGUGAAAUAAAAGUGGCGUACCACAAAGUAGAAGGGUACUGAA [Mat - Exclusion 3 - JL mod - D27]	90.5
AAGAACUGAGGAUAUACAAAAGAAAAGAAAAGAAAGAAAGAACAUGAGGAUCACCCAUGUAGAAGGCGGAAGAA [Khahotepre Sobekhotep VI]	14.7
AGCUAGUGAGGAUAUACGAACACGUAACAGGACUGUAAGGGACAUGAGGAUCACCCAUGUAGAAGGCACUAGCA [Diamond 61]	77
CUCUAGUUAGGAUAUGGAAGAAAAGAAAAGAAAGAAAAGAACCAGAAGGAACAUGAGGAUCACCCAUGUAAGAA [EteRNA is fun!]	34
AAAAAGAAAGGAUAUACGAACAUGUCAAAAGACGUGAAGGGACAUGAGGAUCACCCAUGUAGAAGGUUCAAAAA [JL Half Open 22]	17.1
AAAGGAUCAGGAUAUGUGUGGAAAAAGUGUAUCCGAAAAAAACAUGAGGAUCACCCAUGUAGAAGGGAUCCAAA [Mod 3 of Normal (20/19) by Nando, Round 1]	464
GAAUGCAGAGGAUAUACGGGAUAGCAUCGAAAGAUGCUAAAACAUGAGGAUCACCCAUGUAGAAGGCUGCAGAA [JL Mod 02]	144
AAAAAACAUGAGGAUCACCCAUGUGAGGAUAUUCAAAAAAAAAAAAAAAACACAAGAAGGAGAAGGCACAAAAA [Default title]	73
AACAGGACAGGAUAUACAUGAGGAUCACCCAUGUAGGAACAAAGCAGAGUACCAAACAGUAGAAGGGUCAUGGA [Ruby 28]	37.2
AAAUUAGCAGGAUAUACUAGGGUCCACCGAACUCUGAAAAGACAUGAGGAUCACCCAUGUAGAAGGGCUUCGAA [Atileso]	97.6
AGCUAGUGAGGAUAUGCGAACAUGUCAAAAGACGUGAAGGGACAUGAGGAUCACCCAUGUAGAAGGCGCUAGCA [JL 74% mod 2]	32.7
AAAAAGUGAGGAUAUACGCUGUGGAGUAGACACAACCAGUCGUAGAAGGCACAUGAGGAUCACCCAUGUCCAAA [EX4 Malc#19]	49.6
AGGAUGUCAGGAUAUGUGUAAAGAAUAAAACAAAUAACAACACAGAAGGGACAUGAGGAUCACCCAUGUUAAGA [May 44]	55.7
AAAAAACAUGAGGAUCACCCAUGUGAGGAUAUCCAAAACAAAAAAAAACAAAACAAAAGGAGAAGGCACAUAAA [Amethyst 54]	43.1
AGAGAGUCAGGAUAUACGAAAGAAAAGGGAAACAACAAGGGACAUGAGGAUCACCCAUGUAGAAGGGACGAGAA [Diamond 99]	49.8
AAAAAACAUGAGGAUCACCCAUGUAAGGAUAUGCAAAACCCAUAUAAAAAGGGAAAAAGCAGAAGGUACAAAAA [Starry Exclusion 1.1 (wbt round 1 mod)]	33.1
AAAAAACAUGAGGAUCACCCAUGUAAGGAUAUCGGAAAAGGAAAAAUAAAAAAGAAGACGAGAAGGUACACCAA [Mat - Exclusion 1 - Eli mod - D78]	24
AAAAAGUGAGGAUAUGUCAAAAGUCACAAAAGUGACAAAAGACAGAAGGCACAUGAGGAUCACCCAUGUGAAAA [Mod of Eli - Late G + early G segment 3]	38.8
GAAAAGUCAGGAUAUGCAGACAAAGCAAAAAAGCAAUGUCUGCAGAAGGGACAUGAGGAUCACCCAUGUAAAAG [Mat - Exclusion 4 - Mayanna - D116]	70.1
AAAUGAUGAGGAUAUACAUGAGGAUCACCCAUGUGUAAAAAUAAAUACACAAAAGAAAGUAGAAGGCAUCAAAA [Ex 3 May 12]	99
AGAGGACAUGAGGAUCACCCAUGUGAGGAUAUGCAAAACUAAGGACAAGAUCGGUAUAGCAGAAGGCACGUAGU [JR_EXc001_Sub808]	78.2
GUAGAGUGAGGAUAUGAAUAAAAGAAGAGAAAGAGAAAGCAUCAGAAGGCACAUGAGGAUCACCCAUGUAUGAA [JR_Exc004_Sub1225]	25.3
AAGAAGGUAGGAUAUGCUAAAGAAAUAAAAAUAAAUAAAGAACAUGAGGAUCACCCAUGUAGAAGGGCCAAGAA [Mer[...]re]	27.9

Sequence	apparent KD of MS2 coat protein [nM]
ACCUUACAUGAGGAUCACCCAUGUUAGGAUAUCUCGCUUUCGCAAUCACAGCGCAAGCAGAGAAGGGACACGGG [Esceari]	66.6
GGAAAACAUGAGGAUCACCCAUGUAAGGAUAUGCAAAAAAAAAAGGAUAUAGAAGGAAGCAGAAGGUACAAAGG [salish99-ex1-28]	55.1
AAGAAGACAGGAUAUACAUGAGGAUCACCCAUGUAAAAGAAAGAAAAGGGAAAGAAAAGUAGAAGGGUCAAGAA [Menkheperure Thutmose IV]	36.8
CAGUACUGAGGAUAUACAUGAGGAUCACCCAUGUAUCCAAGCUAGGAAACUAGCACAUGUAGAAGGCAGUACUG [Ex3: 822]	34.5
AAGAACGCAGGAUAUACAUGAAAGAAAGAAAAGAAAAGAAAACAUGAGGAUCACCCAUGUAGAAGGGCGAAGAA [EteRNA is fun!]	39.6
AAGAAAGGAGGAUAUACAUGAGGAUCACCCAUGUAAAAGAAAGAAGGGAAAGAGAAAAGUAGAAGGCCUAAGAA [Wahibre Psamtik I]	31
AAAGGCUUAGGAUAUACAGUGGUCCCAAUGGGCAUCCGAAAACAUGAGGAUCACCCAUGUAGAAGGAAGAAAAU [Raleor]	64.7
AAAAGACAUGAGGAUCACCCAUGUGAGGAUAUGCGAAAAAAAAAAAUAAAAAAAAAAAGUAGAAGGCACACCAA [Mat - Exclusion 1 - Eli mod - D56]	248
GGUUGGCGAGGAUAUACAUGAGGAUCACCCAUGUGAGAGAAUAAAGUGAGAAAGAAAAGUAGAAGGCGCUGACG [salish99-ex3-44]	116
AAAAAACAUGAGGAUCACCCAUGUCAGGAUAUCCUAAAGAAACUCGUAAAAAGAAAUAGGAGAAGGGACAAAAA [PK4]	46.7
AUAAAGUGAGGAUAUGUAAAAAUAACGAAAGUUAUAAAUAAACAGAAGGCACAUGAGGAUCACCCAUGUGAAAU [Meechl MS2 EX4 62% 2]	22.5
AGAAAGACAGGAUAUACAUGAGGAUCACCCAUGUAAAAGAAAGAAAAGGGAAAGAAAAGUAGAAGGGUCAAAGA [Ruby 64]	42.1
AAGAAACAUGAGGAUCACCCAUGUCAGGAUAUGCAGGACUGACGAAAGUCAGUCCAAAGCAGAAGGGACUAGAA [8-pair stack]	56.5
AUAAAGAGAGGAUAUACAUGAGGAUCACCCAUGUAAGAAAUAAAAUAAAUAAAGGGAAGUAGAAGGCUCAAAUA [Denovo 2]	42.5
GAAAAACAUGAGGAUCACCCAUGUCAGGAUAUCCAAAUAAAAAUAAAAUAAAAUAAAAGGAGAAGGGACAAAAG [Mat - Same state - Mayanna Mod - D101]	40
GAAAAGUCAGGAUAUGUGGAAAAAAUAAAAAAAAUAAAAACACAGAAGGGACAUGAGGAUCACCCAUGUUAAAG [Mat - Exclusion 4 - Mayanna - D138]	32.5
AGAAACGAAGGAUAUACAUGAGGAUCACCCAUGUAAAGAAAGAGGAGAGCCACAAGAAGUAGAAGGUCGAAGAA [JR_Exc003_Sub007]	50.7
AACAGUACAGGAUAUACAUGAGGAUCACCCAUGUAAAAUAAAUAAAAAUAAAAAGGGAGUAGAAGGGUACUGGA [Moding Maslow revisited (73) 19]	50.3
AAAAGCACAGGAUAUACAUAAUUAUGACGAAAGUCAUAAAAACAUGAGGAUCACCCAUGUAGAAGGGUGCAAAA [Mod of Meechl's... 64% 1]	37.8
AAGAAUGGAGGAUAUACAUGAGGAUCACCCAUGUAAAAGAAAGAGGGAAAAGAGAAAAGUAGAAGGCCAAAGAA [Ptolemy VII Neos Philopator]	34.4
GGAAAGCGAGGAUAUACAUGAGGAUCACCCAUGUUAACAAACAAACAAACAAACAAAAGUAGAAGGCGCAAAAU [Exclusion 3 This and That]	41.1
AGCUAGACAGGAUAUACGAACAUGUCAAAAGACGUAAGGGAACAUGAGGAUCACCCAUGUAGAAGGGUCUAGCA [Diamond 50]	63.9
